Experimental data from patent publication US20050020492A1 (MERCK, published 2005).
Like-named read-outs stand apart in the source and are kept apart here.

B1: SEQ. ID. NO. 27 (Cit^10 analog of Ac-hMCH(6-16)-NH2) (peptide)
peptide: RCMLXRVYRPC
HELM: PEPTIDE1{[ac].R.C.M.L.[Cit].R.V.Y.R.P.C.[am]}$PEPTIDE1,PEPTIDE1,3:R3-12:R3$$$V2.0
SMILES: CSCC[C@@H]1NC(=O)[C@@H](NC(=O)[C@H](CCCNC(=N)N)NC(C)=O)CSSC[C@@H](C(N)=O)NC(=O)[C@@H]2CCCN2C(=O)[C@H](CCCNC(=N)N)NC(=O)[C@H](Cc2ccc(O)cc2)NC(=O)[C@H](C(C)C)NC(=O)[C@H](CCCNC(=N)N)NC(=O)[C@H](CCCNC(N)=O)NC(=O)[C@H](CC(C)C)NC1=O
notes: also called Cit^10 peptide
B2: SEQ. ID. NO. 4 (D-Arg^6 analog lacking an Ac group) (peptide)
peptide: XCMLGRVYRPC
modifications: D-Arg at position 6, no acetyl; C-terminal amide; disulfide cycle
B3: SEQ. ID. NO. 5 (Ac-D-Arg^6 analog of Ac-hMCH(6-16)-NH2) (peptide)
peptide: XCMLGRVYRPC
modifications: N-terminal acetyl; D-Arg at position 6; C-terminal amide; disulfide cycle
B4: SEQ. ID. NO. 6 (Ac-D-Ala^6 analog of Ac-hMCH(6-16)-NH2) (peptide)
peptide: XCMLGRVYRPC
HELM: PEPTIDE1{[ac].[dA].C.M.L.G.R.V.Y.R.P.C.[am]}$PEPTIDE1,PEPTIDE1,3:R3-12:R3$$$V2.0
SMILES: CSCC[C@@H]1NC(=O)[C@@H](NC(=O)[C@@H](C)NC(C)=O)CSSC[C@@H](C(N)=O)NC(=O)[C@@H]2CCCN2C(=O)[C@H](CCCNC(=N)N)NC(=O)[C@H](Cc2ccc(O)cc2)NC(=O)[C@H](C(C)C)NC(=O)[C@H](CCCNC(=N)N)NC(=O)CNC(=O)[C@H](CC(C)C)NC1=O
B5: SEQ. ID. NO. 7 (Ac-D-Nle^6 analog of Ac-hMCH(6-16)-NH2) (peptide)
peptide: XCMLGRVYRPC
modifications: N-terminal acetyl; D-Nle (D-norleucine) at position 6; C-terminal amide; disulfide cycle
B6: SEQ. ID. NO. 8 (Ac-D-Pro^6 analog of Ac-hMCH(6-16)-NH2) (peptide)
peptide: XCMLGRVYRPC
modifications: N-terminal acetyl; D-Pro at position 6; C-terminal amide; disulfide cycle
B7: SEQ. ID. NO. 9 (Ac-D-Phe^6 analog of Ac-hMCH(6-16)-NH2) (peptide)
peptide: XCMLGRVYRPC
HELM: PEPTIDE1{[ac].[dF].C.M.L.G.R.V.Y.R.P.C.[am]}$PEPTIDE1,PEPTIDE1,3:R3-12:R3$$$V2.0
SMILES: CSCC[C@@H]1NC(=O)[C@@H](NC(=O)[C@@H](Cc2ccccc2)NC(C)=O)CSSC[C@@H](C(N)=O)NC(=O)[C@@H]2CCCN2C(=O)[C@H](CCCNC(=N)N)NC(=O)[C@H](Cc2ccc(O)cc2)NC(=O)[C@H](C(C)C)NC(=O)[C@H](CCCNC(=N)N)NC(=O)CNC(=O)[C@H](CC(C)C)NC1=O
B8: SEQ. ID. NO. 10 (Ac-D-Asn^6 analog of Ac-hMCH(6-16)-NH2) (peptide)
peptide: XCMLGRVYRPC
modifications: N-terminal acetyl; D-Asn at position 6; C-terminal amide; disulfide cycle
B9: SEQ. ID. NO. 11 (Ac-D-Ser^6 analog of Ac-hMCH(6-16)-NH2) (peptide)
peptide: XCMLGRVYRPC
modifications: N-terminal acetyl; D-Ser at position 6; C-terminal amide; disulfide cycle
B10: SEQ. ID. NO. 12 (Ac-D-Glu^6 analog of Ac-hMCH(6-16)-NH2) (peptide)
peptide: XCMLGRVYRPC
modifications: not fully specified; N-terminal acetyl; D-Glu at position 6; C-terminal amide; disulfide cycle
B11: SEQ. ID. NO. 13 (Ac-D-Lys^6 analog of Ac-hMCH(6-16)-NH2) (peptide)
peptide: XCMLGRVYRPC
HELM: PEPTIDE1{[ac].[dK].C.M.L.G.R.V.Y.R.P.C.[am]}$PEPTIDE1,PEPTIDE1,3:R3-12:R3$$$V2.0
SMILES: CSCC[C@@H]1NC(=O)[C@@H](NC(=O)[C@@H](CCCCN)NC(C)=O)CSSC[C@@H](C(N)=O)NC(=O)[C@@H]2CCCN2C(=O)[C@H](CCCNC(=N)N)NC(=O)[C@H](Cc2ccc(O)cc2)NC(=O)[C@H](C(C)C)NC(=O)[C@H](CCCNC(=N)N)NC(=O)CNC(=O)[C@H](CC(C)C)NC1=O

Key:
human MCH-1R [1] = biological target: T1, human MCH-1R (human, UniProt Q99705 1-353); assay: cell-based or functional assay
T1 sequence (Q99705 whole entry): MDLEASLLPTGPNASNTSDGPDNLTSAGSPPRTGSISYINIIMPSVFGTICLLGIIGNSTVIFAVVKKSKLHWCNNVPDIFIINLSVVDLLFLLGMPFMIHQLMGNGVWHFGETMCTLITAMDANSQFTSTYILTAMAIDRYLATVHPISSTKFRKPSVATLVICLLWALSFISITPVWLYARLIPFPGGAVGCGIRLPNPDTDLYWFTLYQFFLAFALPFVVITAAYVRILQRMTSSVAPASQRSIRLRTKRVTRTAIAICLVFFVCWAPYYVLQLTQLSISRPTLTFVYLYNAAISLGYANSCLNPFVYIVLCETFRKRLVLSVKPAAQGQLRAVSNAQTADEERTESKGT

human MCH-2R [2] = biological target: T2, human MCH-2R (human, UniProt Q969V1 1-340); assay: cell-based or functional assay
T2 sequence (Q969V1 whole entry): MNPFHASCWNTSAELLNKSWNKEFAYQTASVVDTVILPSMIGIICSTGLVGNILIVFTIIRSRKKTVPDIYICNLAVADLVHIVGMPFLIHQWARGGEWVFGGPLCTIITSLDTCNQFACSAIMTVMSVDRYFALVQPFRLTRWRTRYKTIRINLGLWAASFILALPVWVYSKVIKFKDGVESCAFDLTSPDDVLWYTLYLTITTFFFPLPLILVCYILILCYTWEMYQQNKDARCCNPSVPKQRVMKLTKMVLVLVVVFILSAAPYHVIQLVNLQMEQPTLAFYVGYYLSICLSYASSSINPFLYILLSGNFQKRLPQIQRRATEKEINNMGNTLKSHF

human MCH-1R [3] = biological target: T1, human MCH-1R; assay: ratio of the two SPA IC50s
human MCH-2R [4] = biological target: T2, human MCH-2R; assay: SPA, displacement of [125I]-[Phe13,Tyr19]-hMCH, MCH-2R membranes
Description: (§1) After equilibrating at room temperature for 3 hours, the plates were read in a TopCount (Packard, Meriden, Conn.). IC₅₀ calculations were performed using Prism 3.0 (GraphPad. Software, San Diego, Calif.). The IC₅₀ values were measured in three different experiments.

human MCH-1R [5] = biological target: T1, human MCH-1R; assay: SPA, displacement of [125I]-[Phe13,Tyr19]-hMCH, CHO/MCH-1R membranes
Description: as §1

human MCH-1R [6] = biological target: T1, human MCH-1R; assay: cell-based or functional assay; remark: listed apart in the source
human MCH-2R [7] = biological target: T2, human MCH-2R; assay: cell-based or functional assay; remark: listed apart in the source
human MCH-2R [8] = biological target: T2, human MCH-2R; assay: SPA, displacement of [125I]-[Phe13,Tyr19]-hMCH, MCH-2R membranes; remark: listed apart in the source
Description: as §1

Binder	IC50 (human MCH-1R [5]) [nM]	Activation %, aequorin bioluminescence (human MCH-1R [6]) [%]	EC50, aequorin bioluminescence (human MCH-1R [6]) [nM]	EC50, aequorin bioluminescence (human MCH-2R [7]) [nM]	IC50 (human MCH-2R [8]) [nM]	Activation %, aequorin bioluminescence (human MCH-2R [7]) [%]	other results
B1	3.1	–	–	–	–	–	Activation %, aequorin bioluminescence (human MCH-1R [1]): 91%; EC50, aequorin bioluminescence (human MCH-1R [1]): 920 nM; Selectivity 2/1 (MCH-2R/MCH-1R EC50 activity ratio) (human MCH-1R [1]): 0.3 ratio; Activation %, aequorin bioluminescence (human MCH-2R [2]): 68%; EC50, aequorin bioluminescence (human MCH-2R [2]): 310 nM; Selectivity 2/1 (MCH-2R/MCH-1R IC50 ratio) (human MCH-1R [3]): 42 ratio; IC50 (human MCH-2R [4]): 130 nM
B2	0.35	130	107	55	47	–	–
B3	–	97	–	–	–	–	–
B4	0.77	109	160	4900	2700	51	–
B5	–	115	–	–	1460	69	–
B6	–	120	–	–	–	–	–
B7	0.9	117	66	510	1250	–	–
B8	–	113	260	–	–	42	–
B9	–	114	160	–	–	39	–
B10	–	100	–	–	–	20	–
B11	0.3	130	94	2100	1030	55	–
